Assay: yeast display, Sf9 membrane polyspecificity reagent, FACS + sequencing; frameworks hold sequencing errors
Method in brief: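 Polyreactivity labels are assigned by the sorting gate from which each nanobody was recovered. The gates were low and high (top ~1%), set on anti-HA fluorescence for expression and streptavidin fluorescence for reagent binding. Before sorting, galactose-induced (36–48 hours) yeast display cells were stained for 1 hour at 4 °C with 10% biotinylated, detergent-solubilized Sf9 membrane reagent.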

Sequence	polyreactivity (PSR sort gate)
QVQLVESVGGLVQAGGILRLSCAASGYTFGGSAKGWYRPAPGKERELVAAITRRGGSTYYADSVKGRFTISRDNAKNTVYLQMNSLKPEDTAVYYCAKRSGSYSYPAVGGWGLGYWGHGTQVTVSS	high polyreactivity
QVQLVESVGGLVQAGGRLRLSCAASAFIFTSYAMGLYRQAPGKDRELVAAISKRGGSTYYADSVKGRFTISRDYAKNTDYLQMHSLKPEDTAVYYCATRYPQPYSPGYSYDYWGQGTQVTVSS	high polyreactivity
QVQLVESVGGLVQAGGSLPLTCAASGYTIGPNVMGWYRQAPGKERELVASITSGTSTYYADSVKGRFTISRDNAKNTVYLQMNSLKPEDTAVYYCAAKYSFGRTRWYGYWGQGTQVTVSS	high polyreactivity
QVQLVESVGGLVQAGGSLRLICAASGSIFDLNAMGWYRQAPGKEREFVAAISSGGGTYYADSVKGRFTISRDNAKNTVYLQKNSLKPEDTAVYYCAFELPELYYYFAYEYWGQGTQVTVSS	high polyreactivity
QVQLVESVGGLVQAGGSLRLRCSASGSIFKYNAMGWYRQAPGKVRELVADITRSGGRTYYADSVKGRFTISRDNEKNTVYVQMNSLKTEDTAVYYCYAVTPTTLGDYWGQGTQVTVSS	high polyreactivity
QVQLVESVGGLVQAGGSLRLSCAASGFIFFFYAMGWYRQAPGKERELVAAISDGVSTYYADSVKGRFTISSDNAKNTVYLQMNSLKPEDTAVYYCAVSRGDEPEFDYWGQGTQVTVSS	low polyreactivity
QVQLVESVGGLVQAGGSLRLSCAASGFIILINVMGWYRKAPGKERELVAVITGGGTTNYADSVKGRFTISRDNAKNTVYLQMNSLKPEDTAVYYCAVDAGAGDNDYWGQGTQVTVSS	low polyreactivity
QVQLVESVGGLVQAGGSLRLSCAASGFTFQYYALGWYRQAPGKERELVAAISWTGGRTYYADSVKGRFTISRDNAKNTVYLQMNSLKPEDTAVYYCNKVLYYYNSGEYDYWGQGTQVTVSS	high polyreactivity
QVQLVESVGGLVQAGGSLRLSCAASGFTFTWYDMGWYRQAPGKERELVAAITTDGGSTYYADSVKGRFTISRDNATNTVYLQMNSLKPEDTEVYYCAAAGYLPFPVEYEYWGQGTQVTVSS	high polyreactivity
QVQLVESVGGLVQAGGSLRLSCAASGFTFYVYAMGWYRQAPGKERELVAAISRGGSTYYADSVKGRFTISRDNAKNTVYLQMNSLKPEDTAVYYCNRVPYVSSSKVRYSNGFDYWGQGTLVTVSS	low polyreactivity
QVQLVESVGGLVQAGGSLRLSCAASGIIFRANAMGWYRQAPGKERELVAAISGRGSSTTYADSVKGRFTISRDNAKNTVYLQMNSLKPEDTAVYYCAAGYGKWFATWRSQKYDYWGQGTQVTVSS	high polyreactivity
QVQLVESVGGLVQAGGSLRLSCAASGITFFNYAMGWYRQAPGKERELVARINWSGGSTYYADSVTGRFTISRDNAKNTVYLQMNSLKPEDTAVYYCAARYWLPRGRRYDYWGQGTQVTVSS	high polyreactivity
QVQLVESVGGLVQAGGSLRLSCAASGITFPYYAMGWYRQAPGKERELVAAISRGDSTYYADSVKGRFTISRDNAKNTVYLQMNSLKPEDTAVYYCAARYGRYWSSCGSWTPYGYWGQGTQVTVSS	high polyreactivity
QVQLVESVGGLVQAGGSLRLSCAASGITIADNAMGWYRQAPRKERELVAAITSGGSTYYADAVKGRFTISRDNAKNTVYFQLNSLKPEDTGVYYCIVRVRRLFYWARLVAYDYWGQGSQVTVSS	high polyreactivity
QVQLVESVGGLVQAGGSLRLSCAASGLIFASYAMGWYRQAPGKERELVAAISWSGGSTYYADSVKGRFTISRDYAKITVYLQMNSLKPEDTAVYYCAAIRYAYGSLDYWGQGTQVTVSS	high polyreactivity
QVQLVESVGGLVQAGGSLRLSCAASGRIFAPNAMGRYRQAPGKERELVAAITSRGSRTYYADSVKGRFTISRDIAKNTVYLQMKSLKPEDTAVYYCATPYRAPWGTARNYGLYYYWGQGTQVTVSS	high polyreactivity
QVQLVESVGGLVQAGGSLRLSCAASGRIFGYNAMGWYRQAPGKEWELVAGITSVGRTYYADSVNGRFTISRDNAKNTVYLQMNSLKPEDTAVYYCNAASYSLAVTAEFEDMDYWGQGTQVTVSS	low polyreactivity
QVQLVESVGGLVQAGGSLRLSCAASGRIFRKYDMGWYRQAPGKERELVAAISGTGITYYADSVKGRFTISRDNAKNTVYLQMNSLKPEDTAVYYCARGSKPRAWSWAYPSATSIYDYWGQGTQVTVSS	low polyreactivity
QVQLVESVGGLVQAGGSLRLSCAASGRIFRYYAMGWYRQAPGKERELVAAISISGGRTYYADSVKGRFSISRDNAKNTVYLQMNSLKPEDTAVYYCNADPYWYDRDKKYDYWGQGTQVTVSS	high polyreactivity
QVQLVESVGGLVQAGGSLRLSCAASGRIFYTYAMGWYRPAPGKERELVAAISSRTGSTYYADSVKGRFTISRDNAKNTVYLQMNSLKPEDTAVYYCNAYRLRYGYDYWGQGTQVTVSS	high polyreactivity

Sequence	polyreactivity (PSR sort gate)
QVQLVESVGGLVQAGGSLRLSCAASGRPFKKYAMGCYRQAPGKERALVAAITGSGGSTYYADAVKGRFTSSRDNAKKTVYLQMNSLKPEDTAVYYCAAYAYGVWHSHDGGNYWGQGTQVTVSS	low polyreactivity
QVQLVESVGGLVQAGGSLRLSCAASGRTFARYAMGWERQAPGQERELVAAISRNTGSTYADSVKGRFTISRDNAKNTVSLQMNSLKPEDTAVYYFASSWRGQDPYYRYVGRDYWGQGTQVTVSS	high polyreactivity
QVQLVESVGGLVQAGGSLRLSCAASGRTFFKYAMGWYRQAPGKERELVAAITASGGSTYYADSVKGRFTISRDNAKNTVYLQMNSLKPEDTAVYYCAARWRSVFWEYYYWGQGTQVTLSS	high polyreactivity
QVQLVESVGGLVQAGGSLRLSCAASGRTFGVYAMGWYRQAPGKERELVAAISRRAGNTYYADSVKGRFTISRDNAKNTVYLQMNSLKPEDTAVYYCAAYFSRQYGYWGLGTQVTVSS	high polyreactivity
QVQLVESVGGLVQAGGSLRLSCAASGRTFLNYAMGWYRQAPGKEREFVAAITWRVGTTYYADSVKGRFTISRDNAKNTVYLQMNSLKPEDTAVYYCNAVTARQSSQGEMDYWGQGTQVTVSS	high polyreactivity
QVQLVESVGGLVQAGGSLRLSCAASGRTFQYNAMGWYRPAPGKERELVAAISSSGGSTYYADSVKGRFTISRDNAKNTVYLQMNSLKPEDTAVYYCNAYSQSWNFYGDGDYWGQGTQVTVSS	low polyreactivity
QVQLVESVGGLVQAGGSLRLSCAASGRTFRTYTMGWYRQAPGKERELVAAIRSSGGRTYYADSVKGRFTISRDNAKNTVYLQMNSLKPEDTAVYYCAREYRGALHYYYCGQGTQVTVSS	high polyreactivity
QVQLVESVGGLVQAGGSLRLSCAASGRTFRYYTMGWYRQAPGKERELVASISWSGGSTYYADSVKGRFTISRDNAKNTVYLQMNSLKPEDTAVYYCNAVYGYRGVTNMDYWGQGTQVTVSS	high polyreactivity
QVQLVESVGGLVQAGGSLRLSCAASGSIFAYNTMGWYRQAPGKERELVAAIRSRGGSTYYADSVKGRFTISRDNAKNTVYIQMNSLKPEDTPVSSCNAVGRARTLGSNTYGYWGQGTQVTVSS	high polyreactivity
QVQLVESVGGLVQAGGSLRLSCAASGSIFDRYAMGWYRQAPGKERELVAAISTGGSTNYADSVKGRFTISRDNAKNTVYLQMNSLKPEDTAVYYCAARYLYRMYYWGQGTQVTVSS	low polyreactivity
QVQLVESVGGLVQAGGSLRLSCAASGSIFRAYAMGWYRQAPGKERELVAAISRSGDSTYYADSVKGRFTISRDNAKNTVYLQMNSLKPEDTADYYCAAQRKPYVRPSGPYKRRDYWGQGTQVTVSS	high polyreactivity
QVQLVESVGGLVQAGGSLRLSCAASGSIFRRYAMGWYRQAPGKERELVAGISSGGYTNYADSVKGRFTISRDNAKNTVYLQMNSLKPEDTAVYYCAAKQYRYVRYRPVDYWGQGTQVTVSS	high polyreactivity
QVQLVESVGGLVQAGGSLRLSCAASGSIFTRNTMGWYRQAPGKERELVAAISGGGSSTYYADSVKGRFTISRDNAKNTVYLQMNSLKPEETAVYYCAASLSRNYGYACYEYWGQGTQVTVSS	high polyreactivity
QVQLVESVGGLVQAGGSLRLSCAASGSIFVNNAMGWYRQAPGKERELVAAISSRSSRTFYADSVKGRFTISRDNAKNTVYLQINSLKPEDTAVYYCNAVGGRKFGEYDYWGQGTQVTVSS	high polyreactivity
QVQLVESVGGLVQAGGSLRLSCAASGSIFYQYAMGWYRQAPGKERELVAAISRSGGSTYYADSVKGRFTISRDIAKNTVYLQMNSLKPEDTAVYYCAADQKSLRMYYWGQGTQVTVSS	high polyreactivity
QVQLVESVGGLVQAGGSLRLSCAASGSNFSVYVMGWYRQAPGKERELVADISRSGGSTYYADSVKGRFTISRDNAKNTVYLQMNSLKPEDTAVYYCAASLYLSWLFEYWGQGTQVTVSS	low polyreactivity
QVQLVESVGGLVQAGGSLRLSCAASGSTFKYNAMGWYRQAHGKERELVAAISRRGGSTYYADSVKGRFTISRDNAKNTVYLQMNSLKPDETAVYYCAADIIRPVTVDYWGQGTQVTVSS	high polyreactivity
QVQLVESVGGLVQAGGSLRLSCAASGSTFNQYAMGWYRHPPGKERELVAAISWSGGRTYYADSVKGRFTISRDNAKNTVYLQMNSLKPEDTSVYYCNKLTRDGRKEDYWGQGTQVTVSS	high polyreactivity
QVQLVESVGGLVQAGGSLRLSCAASGSTFTDYDMGWYRQAPGKERELVADISSGGSTYYADSVKGRFTISRDNAKNTVYLQMNSLKPEDTAVYYCNTDLRLVYRTKGFISWGYDYWGQGTQVTVSS	low polyreactivity
QVQLVESVGGLVQAGGSLRLSCAASGSTFYIYAMRWYRQAPGKERELVARISGSGGSTYYADSVKGRFTISRDNAKNTVYLQMNSLKPEDTAVYYCAADAIYKYYQYYAFPYYRYDYWGLGTQVTVSS	low polyreactivity

From the nanobody polyreactivity screen of Harvey et al. (2022)
